The results in this text go back to US20100297606A1.

This assay deals with humanized anti-human IL-6 receptor monoclonal IgG antibody MRA (tocilizumab), untreated. The assay can be described thus: dot blot of untreated MRA on nitrocellulose (1.5 to 100 ng per spot), biotinylated peptide with HRP-conjugated streptavidin.

Consider Fc-III peptide, for which the detection limit turned out to be 6 ng/spot.
